PMC3659266 (Structure (London, England : 1993), 2013)

Biological target: Human full-length eIF4AI (human, UniProt P60842 1-406)
Assay: ITC

Chain of Human full-length eIF4AI (P60842 whole entry): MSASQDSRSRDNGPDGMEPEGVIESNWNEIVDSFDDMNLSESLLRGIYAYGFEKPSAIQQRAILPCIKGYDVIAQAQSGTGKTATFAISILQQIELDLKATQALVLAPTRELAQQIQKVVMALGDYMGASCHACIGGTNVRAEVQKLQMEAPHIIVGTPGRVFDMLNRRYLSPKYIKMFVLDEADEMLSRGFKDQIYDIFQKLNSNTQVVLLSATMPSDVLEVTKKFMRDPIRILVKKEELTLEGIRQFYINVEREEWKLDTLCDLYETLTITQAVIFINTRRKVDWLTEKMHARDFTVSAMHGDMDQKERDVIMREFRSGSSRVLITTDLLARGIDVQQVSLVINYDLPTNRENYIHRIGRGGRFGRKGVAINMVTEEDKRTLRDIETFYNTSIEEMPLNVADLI

Kd: 136 nM
B1: Middle domain of human eIF4GI (MIF4G, residues 732-1003) (domain or fragment, UniProt Q04637 732-1003, looked up)
chain: KAWKPSSKRTAADKDRGEEDADGSKTQDLFRRVRSILNKLTPQMFQQLMKQVTQLAIDTEERLKGVIDLIFEKAISEPNFSVAYANMCRCLMALKVPTTEKPTVTVNFRKLLLNRCQKEFEKDKDDDEVFEKKQKEMDEAATAEERGRLKEELEEARDIARRRSLGNIKFIGELFKLKMLTEAIMHDCVVKLLKNHDEESLECLCRLLTTIGKDLDFEKAKPRMDQYFNQMEKIIKEKKTSSRIRFMLQDVLDLRGSNWVPRRGDQGPKTID
